Data from the MegaScale stability set (Tsuboyama et al. 2023).

B1: EHEE_rd4_0086 (parent)
chain: EIHIRTNGEEQARKVYKMLAKRNYDVKIEQHNGQWVVTAS

Variants of: B1
Test: folding stability dG (cDNA display proteolysis); higher = more stable
Details: PBS, room temperature

| Variant | folding stability dG [kcal/mol] |
| --- | --- |
| EIHIRPNGEEQARKVYKMLAKRNYDVKIEQHNGQWVVTAS [T6P] | 0.496 |
| EIHIRFNGEEQARKVYKMLAKRNYDVKIEQHNGQWVVTAS [T6F] | 3.03 |
| EIHIRQNGEEQARKVYKMLAKRNYDVKIEQHNGQWVVTAS [T6Q] | 0.309 |
| EIHIRGNGEEQARKVYKMLAKRNYDVKIEQHNGQWVVTAS [T6G] | 0.494 |
| EIHIRRNGEEQARKVYKMLAKRNYDVKIEQHNGQWVVTAS [T6R] | 0.963 |
| EIHIRMNGEEQARKVYKMLAKRNYDVKIEQHNGQWVVTAS [T6M] | 1.91 |
| EIHIRWNGEEQARKVYKMLAKRNYDVKIEQHNGQWVVTAS [T6W] | 0.843 |
| EIHIRKNGEEQARKVYKMLAKRNYDVKIEQHNGQWVVTAS [T6K] | 0.706 |
| EIHIRHNGEEQARKVYKMLAKRNYDVKIEQHNGQWVVTAS [T6H] | 0.847 |
| EIHIRENGEEQARKVYKMLAKRNYDVKIEQHNGQWVVTAS [T6E] | 0.299 |
| EIHIRNNGEEQARKVYKMLAKRNYDVKIEQHNGQWVVTAS [T6N] | 0.438 |
| EIHIRSNGEEQARKVYKMLAKRNYDVKIEQHNGQWVVTAS [T6S] | 1.16 |
| EIHIRDNGEEQARKVYKMLAKRNYDVKIEQHNGQWVVTAS [T6D] | -0.07 |
| EIHIRVNGEEQARKVYKMLAKRNYDVKIEQHNGQWVVTAS [T6V] | 2.55 |
| EIHIRLNGEEQARKVYKMLAKRNYDVKIEQHNGQWVVTAS [T6L] | 2.35 |
| EIHIRINGEEQARKVYKMLAKRNYDVKIEQHNGQWVVTAS [T6I] | 2.02 |
| EIHIRANGEEQARKVYKMLAKRNYDVKIEQHNGQWVVTAS [T6A] | 1.73 |
| EIHIDTNGEEQARKVYKMLAKRNYDVKIEQHNGQWVVTAS [R5D] | 0.471 |
| EIHIVTNGEEQARKVYKMLAKRNYDVKIEQHNGQWVVTAS [R5V] | 2.32 |
| EIHIYTNGEEQARKVYKMLAKRNYDVKIEQHNGQWVVTAS [R5Y] | 2.52 |
| EIHIATNGEEQARKVYKMLAKRNYDVKIEQHNGQWVVTAS [R5A] | 1.53 |

| Variant | folding stability dG [kcal/mol] |
| --- | --- |
| EIHISTNGEEQARKVYKMLAKRNYDVKIEQHNGQWVVTAS [R5S] | 1.45 |
| EIHITTNGEEQARKVYKMLAKRNYDVKIEQHNGQWVVTAS [R5T] | 1.97 |
| EIHIFTNGEEQARKVYKMLAKRNYDVKIEQHNGQWVVTAS [R5F] | 2.36 |
| EIHIETNGEEQARKVYKMLAKRNYDVKIEQHNGQWVVTAS [R5E] | 1.34 |
| EIHINTNGEEQARKVYKMLAKRNYDVKIEQHNGQWVVTAS [R5N] | 1.18 |
| EIHIWTNGEEQARKVYKMLAKRNYDVKIEQHNGQWVVTAS [R5W] | 2.43 |
| EIHIKTNGEEQARKVYKMLAKRNYDVKIEQHNGQWVVTAS [R5K] | 1.75 |
| EIHICTNGEEQARKVYKMLAKRNYDVKIEQHNGQWVVTAS [R5C] | 2.85 |
| EIHIPTNGEEQARKVYKMLAKRNYDVKIEQHNGQWVVTAS [R5P] | 1.19 |
| EIHIMTNGEEQARKVYKMLAKRNYDVKIEQHNGQWVVTAS [R5M] | 1.98 |
| EIHIGTNGEEQARKVYKMLAKRNYDVKIEQHNGQWVVTAS [R5G] | 0.692 |
| EIHILTNGEEQARKVYKMLAKRNYDVKIEQHNGQWVVTAS [R5L] | 2.08 |
| EIHIHTNGEEQARKVYKMLAKRNYDVKIEQHNGQWVVTAS [R5H] | 1.96 |
| EIHIQTNGEEQARKVYKMLAKRNYDVKIEQHNGQWVVTAS [R5Q] | 1.52 |
| EIHIITNGEEQARKVYKMLAKRNYDVKIEQHNGQWVVTAS [R5I] | 2.4 |
| EIVIRTNGEEQARKVYKMLAKRNYDVKIEQHNGQWVVTAS [H3V] | 2.85 |
| EIPIRTNGEEQARKVYKMLAKRNYDVKIEQHNGQWVVTAS [H3P] | 0.072 |
| EIYIRTNGEEQARKVYKMLAKRNYDVKIEQHNGQWVVTAS [H3Y] | 2.36 |
| EIQIRTNGEEQARKVYKMLAKRNYDVKIEQHNGQWVVTAS [H3Q] | 2.06 |
| EIRIRTNGEEQARKVYKMLAKRNYDVKIEQHNGQWVVTAS [H3R] | 2.4 |
| EISIRTNGEEQARKVYKMLAKRNYDVKIEQHNGQWVVTAS [H3S] | 2 |

| Variant | folding stability dG [kcal/mol] |
| --- | --- |
| EITIRTNGEEQARKVYKMLAKRNYDVKIEQHNGQWVVTAS [H3T] | 2.41 |
| EIWIRTNGEEQARKVYKMLAKRNYDVKIEQHNGQWVVTAS [H3W] | 2.12 |
| EINIRTNGEEQARKVYKMLAKRNYDVKIEQHNGQWVVTAS [H3N] | 1.67 |
| EIHFRTNGEEQARKVYKMLAKRNYDVKIEQHNGQWVVTAS [I4F] | 2.16 |
| EIHWRTNGEEQARKVYKMLAKRNYDVKIEQHNGQWVVTAS [I4W] | 1.65 |
| EIHSRTNGEEQARKVYKMLAKRNYDVKIEQHNGQWVVTAS [I4S] | -0.073 |
| EIHARTNGEEQARKVYKMLAKRNYDVKIEQHNGQWVVTAS [I4A] | 0.01 |
| EIHNRTNGEEQARKVYKMLAKRNYDVKIEQHNGQWVVTAS [I4N] | -0.203 |
| EIHPRTNGEEQARKVYKMLAKRNYDVKIEQHNGQWVVTAS [I4P] | -0.436 |
| EIHRRTNGEEQARKVYKMLAKRNYDVKIEQHNGQWVVTAS [I4R] | 0.105 |
| EIHVRTNGEEQARKVYKMLAKRNYDVKIEQHNGQWVVTAS [I4V] | 1.46 |
| EIHDRTNGEEQARKVYKMLAKRNYDVKIEQHNGQWVVTAS [I4D] | -0.257 |
| EIHQRTNGEEQARKVYKMLAKRNYDVKIEQHNGQWVVTAS [I4Q] | 0.032 |
| EIHTRTNGEEQARKVYKMLAKRNYDVKIEQHNGQWVVTAS [I4T] | -0.094 |
| EIHGRTNGEEQARKVYKMLAKRNYDVKIEQHNGQWVVTAS [I4G] | -0.953 |
| EIHMRTNGEEQARKVYKMLAKRNYDVKIEQHNGQWVVTAS [I4M] | 0.855 |
| EIHERTNGEEQARKVYKMLAKRNYDVKIEQHNGQWVVTAS [I4E] | -0.06 |
| EIHYRTNGEEQARKVYKMLAKRNYDVKIEQHNGQWVVTAS [I4Y] | 2.12 |
| EIHLRTNGEEQARKVYKMLAKRNYDVKIEQHNGQWVVTAS [I4L] | 1.12 |
| EIHKRTNGEEQARKVYKMLAKRNYDVKIEQHNGQWVVTAS [I4K] | -0.031 |
| EIHHRTNGEEQARKVYKMLAKRNYDVKIEQHNGQWVVTAS [I4H] | 0.442 |
